Measurements reported in patent US8507431B2, “Methods for accelerating wound healing by administration of a preadipocyte modulator or an adipocyte modulator” (HealOr Ltd., priority 2003, dated 2013).

B1: IL-4: adipokine hIL-4 (protein, UniProt P05112 25-153, looked up)
Interleukin-4: HKCDITLQEIIKTLNSLTEQKTLCTELTVTDIFAASKNTTEKETFCRAATVLRQFYSHHEKDTRCLGATAQQFHRHKQLIRFLKRLDRNLWGLAGLNSCPVKEANQSTLENFLERLKTIMREKYSKCSS
B2: visfatin (protein, UniProt P43490 1-491, looked up)
Nicotinamide …: MNPAAEAEFNILLATDSYKVTHYKQYPPNTSKVYSYFECREKKTENSKLRKVKYEETVFYGLQYILNKYLKGKVVTKEKIQEAKDVYKEHFQDDVFNEKGWNYILEKYDGHLPIEIKAVPEGFVIPRGNVLFTVENTDPECYWLTNWIETILVQSWYPITVATNSREQKKILAKYLLETSGNLDGLEYKLHDFGYRGVSSQETAGIGASAHLVNFKGTDTVAGLALIKKYYGTKDPVPGYSVPAAEHSTITAWGKDHEKDAFEHIVTQFSSVPVSVVSDSYDIYNACEKIWGEDLRHLIVSRSTQAPLIIRPDSGNPLDTVLKVLEILGKKFPVTENSKGYKLLPPYLRVIQGDGVDINTLQEIVEGMKQKMWSIENIAFGSGGGLLQKLTRDLLNCSFKCSYVVTNGLGINVFKDPVADPNKRSKKGRLSLHRTPAGNFVTLEEGKGDLEEYGQDLLHTVFKNGKVTKSYSFDEIRKNAQLNIELEAAHH
notes: insulin-mimetic hormone secreted from visceral adipose tissue
B3: adiponectin (protein, UniProt Q15848 19-244, looked up)
Adiponectin: ETTTQGPGVLLPLPKGACTGWMAGIPGHPGHNGAPGRDGRDGTPGEKGEKGDPGLIGPKGDIGETGVPGAEGPRGFPGIQGRKGEPGEGAYVYRSAFSVGLETYVTIPNMPIRFTKIFYNQQNHYDGSTGKFHCNIPGLYYFAYHITVYMKDVKVSLFKKDKAMLFTYDQYQENNVDQASGSVLLHLEVGDQVWLQVYGEGERNGLYADNDNDSTFTGFLLYHDTN
notes: adipokine

Columns and labels:
primary keratinocytes [1] = experiment: Keratinocytes migration (wound scratch) assay in vitro; type: cell-based, murine
Method: (§1) Primary keratinocytes were isolated from newborn skin as described in reference 18. Keratinocytes were cultured in Eagle's Minimal Essential Medium (EMEM) containing 8% Chelex (Chelex-100, BioRad) treated fetal bovine serum. To maintain a proliferative basal cell phenotype, the final Ca^2+ concentration was adjusted to 0.05 mM. Experiments were performed five to seven days after plating.
Primary mouse keratinocytes were untreated or treated with, PPARγ antagonist GW9662 (μM) or PPARγ agonist troglitazone (μM). Wound Scratch Assay was performed 24 hours following treatment, and representative fields were photographed immediately after the wounding (Day 0) and 48 hours later (Day 2). The average of wound closure represented as percentage in comparison to the initial width of the wound scratch (% of wound closure).
The effect of inhibiting or enhancing the activity of peroxisome proliferators-activated receptor gamma (PPARγ) on keratinocytes migration was evaluated utilizing the in vitro migration assay. Thus, primary keratinocytes were isolated and plated on 5 ml non-coated dishes until confluence in low Ca^2+ medium, and an artificial crossover scratch was formed in each dish with a 200 μm tip. Cells were either non-treated (control) or treated daily with PPARγ modulators.
In order to test the effect of different adipokines on keratinocyte migration to close the wound gap, an in vitro scratch assay was used. Thus, primary keratinocytes were isolated and plated on 5 ml non-coated dishes until confluence in low Ca^2+ medium, and an artificial crossover scratch was formed in each dish with a 200 μm tip. Cells were either non-treated (control) or treated daily with insulin (0.1 unit/ml), hIL-4 (2 ng/ml), hIL-6 (0.2 ng/ml), leptin (4 μg/ml) or apelin (0.02 μg/ml or 0.2 μg/ml).
Primary keratinocytes/fibroblasts were isolated and plated on 5 ml non-coated dishes until confluence in low Ca^2+ medium, and an artificial cross-over scratch was formed in each dish with a 200 μm tip. […]

primary skin fibroblasts = experiment: Fibroblasts scratch migration assay in vitro; type: cell-based; conditions: 24 hrs; for fibroblasts migration to close the wound gap vs non-treated and insulin: hIL-8 5 ng/ml, hIL-1β 0.2 ng/ml, hIL-4 2 ng/ml, apelin 0.2 μg/ml, adiponectin 1 μg/ml
Method: Primary skin fibroblasts were isolated and plated on 5 ml non-coated dishes until confluence in low Ca^2+ medium, and an artificial crossover scratch was formed in each dish with a 200 μm tip. Cells were either non-treated (control) or treated with insulin (0.1 unit/ml), hIL-8 (5 ng/ml), hIL-1β (0.2 ng/ml), hIL-4 (2 ng/ml), apelin (0.2 μg/ml) or adiponectin (1 μg/ml); and collected after 24 hrs.
Primary keratinocytes/fibroblasts were isolated and plated on 5 ml non-coated dishes until confluence in low Ca^2+ medium, and an artificial cross-over scratch was formed in each dish with a 200 μm tip. Then, cells were either non-treated or treated with visfatin (0.1 μg/ml or 0.0.1 μg/ml) or insulin (0.1 unit/ml) for up to 48 hrs.

[2] = test system: Full thickness wounds on the back of C57BL mice; experiment: Wound healing assay, full thickness incision wounds in mice; type: in vivo
Method: […] […] Wound biopsies were sampled, processed and analyzed morphologically and/or histochemically and/or immunohistochemically for various wound healing parameters, i.e., wound contraction, adipocytes migration and differentiation, epidermal migration, and epidermal closure.
The wound area was measured and compared to untreated control wounds; and wound contraction was calculated as the percent reduction of the wound area.
Wound biopsies were fixed in 4% paraformaldehyde then dehydrated in increasing concentrations of ethanol (50-100%). The dehydrated preparations were immersed first in xylene, then paraffin and xylene 1:1 solution, then in pure melted paraffin (60° C.). The paraffin blocks were then sectioned by a microtome and the sections were mounted on Super Frost^+™ slides.
Paraffin embedded wound-section slides were incubated at 60° C. for 60 minutes and were de-parafinated by washing the slides twice with toluene (100%) for 10 minutes, then rehydrated in decreasing concentration of ethanol (100-50%) for 5 minutes each. The slides were stained with hematoxylin (ready to use solution) for 10 minutes, rinsed with water, stained with eosin (0.5% in DDW) for 5 minutes, and then washed with 70% ethanol by 2 quick immersions. Thereafter, the slides were dehydrated by washing once with 95% ethanol for 2 minutes, twice with 100% ethanol for 5 minutes, and twice with xylene (100%) for 10 minutes, then mounted with entellan (MERCK Darmstadt Germany).
Paraffin embedded wound-section slides were de-parafinated as described for H&E staining above and incubated in blocking solution (5% BSA and 0.5% Tween 20™ in PBS) for 1 hour. […]
The effect of inhibiting or enhancing the activity of PPARγ using PPARγ antogonist and agonist, respectively, on wound healing was also evaluated in vivo. […]
The effect of adipsin (complementing Factor D, which is secreted from adipocytes) on wound healing was evaluated in vivo. […] The mice were sacrificed 6 days after wounding and the wounds were then analyzed. […]

primary keratinocytes [3] = experiment: Western blot analysis for PCNA expression (proliferation marker); type: cell-based, murine; conditions: visfatin 0.01 μg/ml, 24 hrs post treatment
Method: as §1
(§2) Primary keratinocytes were isolated, plated on 100 mm tissue dishes and maintained for 5 days in medium with low Ca^+ (0.05 mM) until 80% confluence. Then, cells were either non-treated (control) or treated with insulin (0.1 unit/ml, 1 μM) or visfatin (0.01 μg/ml or 0.1 μg/ml). 24 hrs post treatment cells were lyzed and analyzed for PCNA expression by western blot analysis.

primary keratinocytes [4] = experiment: Thymidine incorporation assay; type: cell-based, murine
Method: as §1
Primary keratinocytes were isolated, plated on 6 well tissue dishes and maintained for 5 days in medium with low Ca^2+ (0.05 mM) until 80% confluence. Then, cells were either non-treated (control) or treated with visfatin (0.1 μg/ml or 0.01 μg/ml) for 24 hrs. 6 hrs post treatment Ca^2+ mM was added to the medium, and the next day, cells were pulsed with [^3H]thymidine (1 uCi/ml) for 1 hour. After incubation, cells were washed three times with PBS and 5% trichloroacetic acid (TCA) was added into each well for 1 hour. The solution was then removed and cells were stabilized in 1M NaOH. The labeled thymidine incorporated into the cells was counted in a ^3H-window of a Tricarb liquid scintillation counter.

primary keratinocytes [5] = experiment: Differentiation assay for Keratin 1 (western blot); type: cell-based, murine; conditions: visfatin 0.01 or 0.1 μg/ml, 24 hrs; vs non treated and insulin treated cells
Method: as §1
as §2, with “low Ca^2+” for “low Ca^+”, “were lysed” for “were lyzed”, “for K1 (Keartin 1)” for “for PCNA”

primary keratinocytes [6] = experiment: Differentiation assay for filaggrin (western blot); type: cell-based, murine; conditions: visfatin 0.01 and 0.1 μg/ml, 24 hrs
Method: as §1
Primary keratinocytes were isolated, plated on 100 mm tissue dishes and maintained for 5 days in medium with low Ca^2+ (0.05 mM) until reaching 80% confluence. Then, cells were either non-treated (control) or treated with visfatin (0.01 μg/ml or 0.1 μg/ml). Terminal differentiation was induced by adding Ca^2+ to the medium 6 hrs post treatment. 24 hrs post treatment cells were lysed and analyzed for filaggrin expression by western blot analysis.

[7] = visfatin 0.01 μg/ml daily for 7 days

Molecule	keratinocyte migration in scratch assay vs control and insulin (primary keratinocytes [1]; treated daily, 24 and 48 hrs, hIL-4 2 ng/ml, apelin 0.2 μg/ml)	fibroblasts migration to close the wound gap vs non-treated and insulin (primary skin fibroblasts)	adipocytes at the wound site [2, 7]	inflammation in the wound [2, 7]	migration of keratinocytes relative to controls (primary keratinocytes [1]; visfatin 0.1 μg/ml or 0.01 μg/ml, up to 48 hrs)	migration of keratinocytes (primary keratinocytes [1]; visfatin 0.1 μg/ml, 48 hrs)	fibroblast migration and proliferation (primary skin fibroblasts; visfatin 0.01 μg/ml, insulin 0.1 unit/ml as comparison)	PCNA expression levels in keratinocytes (primary keratinocytes [3])	proliferation rate under conditions promoting cell differentiation (primary keratinocytes [4]; Ca2+ 0.12 mM addition to the medium, visfatin 0.1 or 0.01 μg/ml)	thymidine incorporation (proliferation) (primary keratinocytes [4]; visfatin 0.01 μg/ml vs 0.1 μg/ml and controls, 24 hrs)	keratinocyte differentiation (Keratin 1 expression) (primary keratinocytes [5])	filaggrin levels (terminal differentiation) (primary keratinocytes [6])	healing parameters (epidermal closure, dermal contraction, matrix remodeling) ([2]; adiponectin 1 μg/ml daily for 7 days, 20 mm incision, H&E and Masson Trichrome)
B1	keratinocyte migration was highly significant	did not induce any additional effect compared to controls	–	–	–	–	–	–	–	–	–	–	–
B2	–	–	attracts adipocytes to the wound site	reduces inflammation	does not halt or interfere with migration of keratinocytes	induced migration in keratinocytes though not significantly	promotes fibroblast migration and proliferation to the extent of insulin treatment	significantly decreased	inhibited even further	lower thymidine incorporation than the higher dose (0.1 μg/ml) and controls	promotes keratinocyte differentiation primarily terminal differentiation	marked elevation in filaggrin levels	–
B3	–	promoted fibroblasts migration to completely close the wound gap	–	–	–	–	–	–	–	–	–	–	better healing parameters
